Reference: patent US20090098103A1

Key:
Assay in all cases: cell-based or functional assay
[1] = biological target: FVIIa variant CB586 D196R/K197E/K199E (human) (UniProt P08709)
[2] = biological target: FVIIa variant CB693 K197E/K199E/G237V/M298Q/K341Q (human) (UniProt P08709)
[3] = biological target: FVIIa variant CB556 D196A (human) (UniProt P08709)
[4] = biological target: FVIIa variant CB602 D196W (human) (UniProt P08709)
[5] = biological target: FVIIa variant CB559 K197A (human) (UniProt P08709)
[6] = biological target: FVIIa variant CB694 K199E/K341Q (human) (UniProt P08709)
[7] = biological target: FVIIa variant CB564 K199A (human) (UniProt P08709)
[8] = biological target: FVIIa variant CB579 D196R/R290E (human) (UniProt P08709)
[9] = biological target: FVIIa variant CB696 G237V/M298Q/K341Q (human) (UniProt P08709)
[10] = biological target: FVIIa variant CB569 K341R (human) (UniProt P08709)
[11] = biological target: FVIIa variant CB594 V158D/E296V/M298Q/K337A (human) (UniProt P08709)
[12] = biological target: FVIIa variant CB565 T239A (human) (UniProt P08709)
[13] = biological target: FVIIa variant CB601 D196Y (human) (UniProt P08709)
[14] = biological target: FVIIa variant CB592 M298Q (human) (UniProt P08709)
[15] = biological target: FVIIa variant CB615 D196F/K197E (human) (UniProt P08709)
[16] = biological target: FVIIa variant CB691 K197E/K199E/K341Q (human) (UniProt P08709)
[17] = biological target: FVIIa variant CB697 R290N (human) (UniProt P08709)
[18] = biological target: FVIIa variant CB611 D196L/K197L (human) (UniProt P08709)
[19] = biological target: FVIIa variant CB554 D196K (human) (UniProt P08709)
[20] = biological target: FVIIa variant CB591 L305V/S314E/L337A/F374Y (human) (UniProt P08709)
[21] = biological target: wild-type Factor VII polypeptide (CB553-02), activated (FVIIa) (human) (UniProt P08709)
[22] = biological target: FVIIa variant CB589 D196R/K197M/K199E (human) (UniProt P08709)
[23] = biological target: FVIIa variant CB588 D196R/K197E/K199E/R290E (human) (UniProt P08709)
[24] = biological target: FVIIa variant CB605 G237W (human) (UniProt P08709)
[25] = biological target: FVIIa variant CB590 D196R/K197M/K199E/R290E (human) (UniProt P08709)
[26] = biological target: FVIIa variant CB597 K197F (human) (UniProt P08709)
[27] = biological target: FVIIa variant CB699 R290K (human) (UniProt P08709)
[28] = biological target: FVIIa variant CB560 K197L (human) (UniProt P08709)

Q: For “Human Recombinant TFPI (R&D Systems) (from UniProt P10646 29-282)”, which IC50 of TFPI inhibition of FVIIa/TF [1] is on record?
A: 13 nM

Q: What about the TFPI fold resistance (fold vs wild-type FVIIa) [1] of the same substance?
A: < 0.3

Q: What about the pIC50 of TFPI inhibition of FVIIa/TF [1] of the same substance?
A: 7.9

Q: What about the TFPI fold resistance (fold vs wild-type FVIIa) [2] of the same substance?
A: 22.1

Q: And the IC50 of TFPI inhibition of FVIIa/TF [3]?
A: 5 nM

Q: What about the TFPI fold resistance (fold vs wild-type FVIIa) [3] of the same substance?
A: < 0.3

Q: What about the pIC50 of TFPI inhibition of FVIIa/TF [3] of the same substance?
A: 8.3

Q: What about the TFPI fold resistance (fold vs wild-type FVIIa) [4] of the same substance?
A: < 0.3

Q: What about the IC50 of TFPI inhibition of FVIIa/TF [5] of the same substance?
A: 53 nM

Q: What about the TFPI fold resistance (fold vs wild-type FVIIa) [5] of the same substance?
A: 0.7

Q: And the pIC50 of TFPI inhibition of FVIIa/TF [5]?
A: 7.3

Q: And the TFPI fold resistance (fold vs wild-type FVIIa) [6]?
A: 19.1

Q: And the IC50 of TFPI inhibition of FVIIa/TF [7]?
A: 68 nM

Q: What about the TFPI fold resistance (fold vs wild-type FVIIa) [7] of the same substance?
A: 0.9

Q: And the pIC50 of TFPI inhibition of FVIIa/TF [7]?
A: 7.2

Q: And the IC50 of TFPI inhibition of FVIIa/TF [8]?
A: 28 nM

Q: What about the TFPI fold resistance (fold vs wild-type FVIIa) [8] of the same substance?
A: 0.4

Q: And the pIC50 of TFPI inhibition of FVIIa/TF [8]?
A: 7.6

Q: And the TFPI fold resistance (fold vs wild-type FVIIa) [9]?
A: 3.2

Q: What about the IC50 of TFPI inhibition of FVIIa/TF [10] of the same substance?
A: 300 nM

Q: What about the TFPI fold resistance (fold vs wild-type FVIIa) [10] of the same substance?
A: 4.1

Q: And the pIC50 of TFPI inhibition of FVIIa/TF [10]?
A: 6.5

Q: And the IC50 of TFPI inhibition of FVIIa/TF [11]?
A: 22 nM

Q: And the TFPI fold resistance (fold vs wild-type FVIIa) [11]?
A: 0.3

Q: And the pIC50 of TFPI inhibition of FVIIa/TF [11]?
A: 7.7

Q: What about the IC50 of TFPI inhibition of FVIIa/TF [12] of the same substance?
A: 320 nM

Q: And the TFPI fold resistance (fold vs wild-type FVIIa) [12]?
A: 4.5

Q: What about the pIC50 of TFPI inhibition of FVIIa/TF [12] of the same substance?
A: 6.5

Q: What about the TFPI fold resistance (fold vs wild-type FVIIa) [13] of the same substance?
A: < 0.3

Q: What about the IC50 of TFPI inhibition of FVIIa/TF [14] of the same substance?
A: 35 nM

Q: What about the TFPI fold resistance (fold vs wild-type FVIIa) [14] of the same substance?
A: 0.5

Q: And the pIC50 of TFPI inhibition of FVIIa/TF [14]?
A: 7.5

Q: And the TFPI fold resistance (fold vs wild-type FVIIa) [15]?
A: < 0.3

Q: What about the TFPI fold resistance (fold vs wild-type FVIIa) [16] of the same substance?
A: 34.3

Q: What about the TFPI fold resistance (fold vs wild-type FVIIa) [17] of the same substance?
A: 1.5

Q: What about the TFPI fold resistance (fold vs wild-type FVIIa) [18] of the same substance?
A: < 0.3

Q: And the IC50 of TFPI inhibition of FVIIa/TF [19]?
A: 45 nM

Q: What about the TFPI fold resistance (fold vs wild-type FVIIa) [19] of the same substance?
A: 0.6

Q: And the pIC50 of TFPI inhibition of FVIIa/TF [19]?
A: 7.4

Q: And the IC50 of TFPI inhibition of FVIIa/TF [20]?
A: 43 nM

Q: What about the TFPI fold resistance (fold vs wild-type FVIIa) [20] of the same substance?
A: 0.6

Q: What about the pIC50 of TFPI inhibition of FVIIa/TF [20] of the same substance?
A: 7.4

Q: And the IC50 of TFPI inhibition of FVIIa/TF [21]?
A: 88 nM

Q: What about the TFPI fold resistance (fold vs wild-type FVIIa) [21] of the same substance?
A: 1

Q: What about the pIC50 of TFPI inhibition of FVIIa/TF [21] of the same substance?
A: 7.1

Q: What about the IC50 of TFPI inhibition of FVIIa/TF [22] of the same substance?
A: 44 nM

Q: And the TFPI fold resistance (fold vs wild-type FVIIa) [22]?
A: 0.6

Q: What about the pIC50 of TFPI inhibition of FVIIa/TF [22] of the same substance?
A: 7.4

Q: What about the IC50 of TFPI inhibition of FVIIa/TF [23] of the same substance?
A: 28 nM

Q: What about the TFPI fold resistance (fold vs wild-type FVIIa) [23] of the same substance?
A: 0.4

Q: And the pIC50 of TFPI inhibition of FVIIa/TF [23]?
A: 7.6

Q: What about the TFPI fold resistance (fold vs wild-type FVIIa) [24] of the same substance?
A: < 0.3

Q: What about the IC50 of TFPI inhibition of FVIIa/TF [25] of the same substance?
A: 66 nM

Q: And the TFPI fold resistance (fold vs wild-type FVIIa) [25]?
A: 0.9

Q: And the pIC50 of TFPI inhibition of FVIIa/TF [25]?
A: 7.2

Q: And the TFPI fold resistance (fold vs wild-type FVIIa) [26]?
A: < 0.3

Q: And the TFPI fold resistance (fold vs wild-type FVIIa) [27]?
A: 0.6

Q: What about the IC50 of TFPI inhibition of FVIIa/TF [28] of the same substance?
A: 1100 nM

Q: What about the TFPI fold resistance (fold vs wild-type FVIIa) [28] of the same substance?
A: 16

Q: What about the pIC50 of TFPI inhibition of FVIIa/TF [28] of the same substance?
A: 5.9
